Measured values taken from the DeepSol protein solubility set.

Assay: soluble on expression in E. coli; label from the status in PepcDB or PDB records

Row | Sequence | soluble on expression in E. coli
1 | MERGEIWLVSLDPTAGHEQQGTRPVLIVTPAAFNRVTRLPVVVPVTSGGNFARTAGFAVSLDGVGIRTTGVVRCDQPRTIDMKARGGKRLERVPETIMNEVLGRLSTILT | soluble
2 | MAMHTWFECKIRYEKTMENGMQKKVTEPYLVDALSFTEAEARIIEEMTPFITGEFTVSDIKRANYSELFPSDEESADRWFKCKLIFITLDEKSGAEKKTSTQVLVQAADLRDAVKKLDEGMKGTMADYQIGMVSETPLMDVYPYSAGPNDKPEFDPSKA | not soluble
3 | MAHTPTMLAAAAPFMPEATGVDPALDALLAGLQAHPARIDPKYLYDALGSSLFAAITQLPEYYPTRCEAEIFATHLEAIARHTGPVRTLIDLGAGDCAKAERLLPCLRPQRYVPIDISTDFLGQAVARVRRAHPWLDVLPLGRDLNAGLDLPEAIDAQGRLFFYPGSSIGNLDPDAALALLASLRAQAGVSGGLLIGVDRVKARAIVEPAYDDALHLTGAFNLNLLRHVNSVLGSDFDVRDWTHVALYNEPRSRMEMHLQARSDIRVRWPGGQRRFQADERIHTENSYKYTIERFVDLLRRAGYGDIRYWSDARDWFSVFSARA | soluble
4 | MGSDKIHHHHHHMSDAMHTLLTASPLLDLHHPEIEALVARRDWLTLSPYDRIGAVYDFVRNEIAFGYNEGDELPASRVLADGIGQCNTKSTLLMALLRAVGIPCRFHGFTIDKPLQKGAITGLAYWLAPQRIIHSWVEVSLEGRWIALEGFILDAPYLASLQRRFPQARRFCGYGAATPDLSAPGVDWRGQDAYIQKEGIADDFGVFDSPDAFYARHGSNLSGVKRWLYERVIRHRMNRNVARVRASKW | not soluble
5 | MEQQFILRLHESIKHVVDLGNSTIDICDDRSVVLTHNNKKYPGIVVRLPCIVESQKTMDSRQHYKVADISTLVVVYPDDSFDFDKEREMYELSGLSPPLKYVKARRFRKKSSKIEYVEEIEKKVNDLLEKDMKARSVEVVAKEEKETSDDLDVLAAEIENKLVDNAEAHKEEVQSRPDEIGEKKEEQPRNEEIERLEKGIEEKRRQMESALNPILQKRFESQLNVLLKELEDVKKGMEME | soluble
6 | MPPKQQGPSKKSEQKRKEKVIEDKTFGLKNKKGNKNQKFVAQVENQVRNNNTRMDLVRQQEAAKKKEKDELLDIANLLKPVEQKVAKDVDPKSLLCVFFKQGLCGKGAKCKFSHDLAVAQKTAKKNLYADSREVEKDEETNENWDSDKLNEVVNKKNKNKHMIDIVSSFMTDIFKFKKLNFKVCKYFLEAVENNKYGWFWECPNGGEKCQYRHCLPEGYVLKKERKAMEQQKEDEISIEELVEKERAALSSKNLTKLTLQTFIAWKKKKLRERKEKEEADLKEKKEKIKSGKHNGMSGRDLFLYDANLVNNDDDEAGDIEMEKEEVDENEKVFEIDANFFKFDGMDDELTDQMSKSSTAVESTAKGMAKMDINEDLFDIDEDVENLDSDED | soluble
7 | MPLTLYQRDDCHLCDQAVEVVAQARAGDFDSVFIDDDAALEAVYGARVPVLRDARGRELEWPFDRVRLRAWLDDDAERLEHHHHHH | not soluble
8 | MITLTLFGQETSSSALIFAYCNAATGSNTMSTDCRRRLNKDLYLLIPEHPMNPKQFERWKSQLSQLSPQQLRALQGEIDRSLHQNESALLTEEERDAIAHLFS | not soluble
9 | MGSDKIHHHHHHMANNYMKRKDRIILTAVEIIDQLGVQGLTIREIASRQEISEAAIYRHFANKSEILLGTIDYFSSYDALLFRTIESQNMKAWEGITFLLASYTEYYENYPAITAVTFTQEAFQLEPEARERMENVIDNRLRFIKQMVIKGQKEGEFTRDICSEGIVDIIFGTVQFIILRWRAKNYDFALKEHVLSTLSILIEAFSTVKLENRFAWGGVFNQEVSSSTFDSVLTRPGLFLEKGKDQVNEKSEG | not soluble
10 | SLPKFGIEKRYNAAKSDIVSYLEKNNRNTSLGARFDMWENALIAIKEAPIFGHGSDGYDEFRHKQVKSKQMAKTTLNFGSLHNQYLESWVKRG | not soluble
11 | MGSSHHHHHHSSGLVPRGSHMKWDYDLRCGEYTLNLNEKTLIMGILNVTPDSFSDGGSYNEVDAAVRHAKEMRDEGAHIIDIGGESTRPGFAKVSVEEEIKRVVPMIQAVSKEVKLPISIDTYKAEVAKQAIEAGAHIINDIWGAKAEPKIAEVAAHYDVPIILMHNRDNMNYRNLMADMIADLYDSIKIAKDAGVRDENIILDPGIGFAKTPEQNLEAMRNLEQLNVLGYPVLLGTSRKSFIGHVLDLPVEERLEGTGATVCLGIEKGCEFVRVHDVKEMSRMAKMMDAMIGKGVK | soluble
12 | MTPDQMRDASLLELFRLEAEAQTQVLNAGLMALERSPTQADQLEACMRAAHSLKGAARIVGLDAGVRVAHVMEDCLVEAQDGRLLLQSEHIDALLQGCDLLLRIGTPPAGDAGWAEGAGREEIDGLVLRLEGLVRSGLPLARAELPATTPGLPEAVPEAPPAASAAASDDNDEEPAGQAGGEQAEERRSRVLRVTAERLDRLLDISSKSLVEFQRIKPLADSLQRLRRLQSSASRALDVVRETVQETALDPQAQAMLGEARQLIGECQQMLVQHIADLDEFAWQGGQRAQVLYDAALASRMRPFADVLSGQARMVRDLGRSLGKQVRLLVEGESTQVDRDVLEKLEAPLTHLLRNAVDHGIEAPETRLAAGKPAEGRITIRARHHAGMLVLELSDDGGGIDLQRLRETVLNRQFATAETVAQLSEEELLAFLFLPGFSMREQVTEVSGRGVGLDAVQHMVRQLRGGVRMEQRQGQGALFHVEVPLTLSVVRSLVVEIGEEAYAFPLAHIERMCELEAEEIVQLEGRQHFWYEGRHVGLVSAAQLLQRPESSRTEGAIPVVVVRDRDAVYGVAVERFVGERTLVVMPLDPRLGKVRDVSAGALLDDGSPVLILDVEDLLHSVGKLLSSGRLERIDRSRRQAGGAQRKRILVVDDSLTVRELERKLLLGRGYDVAVAVDGMDGWNALRSEHFDLLITDIDMPRMDGIELVTLVRRDSRLQSLPVMVVSYKDREEDRRRGLDAGADYYLAKASFHDEALLDAVVVLIGEAQG | not soluble
13 | MARAIHVFRTPDRFVAGTVGQPGNRTFYLQAVHDSRVVSVVLEKQQVAVLAERIGALLFEVNRRFGTPVPPEPTEIDDLSPLIMPVDAEFRVGTMGLGWDSEAQSVVVELLAVTDAEFDASVVLDDTEEGPDAVRVFLTPESARQFATRSYRVISAGRPPCPLCDEPLDPEGHICARTNGYRRDVLLGSGDDPAG | soluble
14 | MSQEQLVAVNELNENLGKVLIKIARDSIANKLGILKINLEDYLSSLNDPILNKKGLAFVTLETYYGNSTSLRGCIGYVEAVAPLKEIVSKAAIAAAFSDPRFPPLSKGEFDNIIIEVTVLTKPQEIDVENRWELPKKIKVGEDGLIVEYGILYSGLLLPQVPMEYCWDEETFLAETCIKAGLEPDCWLNNKVKIKKFQGIIFREEKPKSEKILIIKPSEVKCKKEEISLL | soluble
15 | MAHHHHHHMAVSQLLEMKLITRPRANLTQENVNAMVEFDYELAKKAQIAVDNNLPVNFFDLEYIDKPEYLAQLLEEKNILEKTREEVLKREKGNYKTPEILKNYKRVEVPREWRQELEIDEKILKAQPGLKENIELQKIMHNYVQSKFKSKVPGQPQKKHVKG | soluble
16 | SFQGADSQAGKSGSRSMKPPGGESSDLFGSPEEGISSSKPNRMASNIFGPTEEPKNIPKRTNPPGGKGSGIFDESTPVQTRQRLNPPGGKTSDIFGSPVTATAPLAHPNKPKDHVLLCEGEDSKSDLKAATDSTPRGEQSDKGSSKEVEHAKIPEPTPTVDSHEPRLGPRPRSHNKVLNPPGGKSSLSFY | soluble
17 | IKLNTLNTMSMGVTMRYMSEKYFKMMCGVQMEINYSQRGWDEKIEDDSGNSYSRTMNYLEIPFMAHLAFGKDALNRGVKVFFNAGPQIGFFLGDNEKINWTTSTTRPEHGKEVENKFDYGITAGAGLEVSTGIGHFLLEGRYYMGLSDFYKNSKRDFFERSAHSFIGIRLSYLI | not soluble
18 | MGSDKIHHHHHHMKFTINRTLFIEKLEKASATVDVKNPMPALQGVLLDCNSKGMILMGSDGTETVTLVTRFNVNSGDCTEPGKVLFAAAPVLKTIKKFKSEFIGLEHKNNELKIVESKKKQFSFCTMDHEEYPEIKIEAGEDWISLSQEQFVSMANGTLHAIPAMDTRKILTGVNLKSVDDKFFSIATDAHRLARLHFDCTKITIAKDGEVVLPIKSLKTALKLFNRETNLQLKLISDTQLLIRGESIIYQSRLLAGTYPDTARMVPDEFKSEIQLSREEFKNTLEQLSAFSSLIVLTSEGKESIHLKPQNSQVGTASVEIPCNQVEAFTLACNVEYLLQALQTITSETIAIKMISNQRPIVVVGAEDTTHSNLQLILPVRV | not soluble
19 | KNFNPPTRRNWESNYFGMPLQDLVTAEKPIPLFVEKCVEFIEDTGLCTEGLYRVSGNKTDQDNIQKQFDQDHNINLVSMEVTVNAVAGALKAFFADLPDPLIPYSLHPELLEAAKIPDKTERLHALKEIVKKFHPVNYDVFRYVITHLNRVSQQHKINLMTADNLSICFWPTLMRPDFENREFLSTTKIHQSVVETFIQQCQFFFYNGEIVE | soluble
20 | MSLAKQDELVFLPLGGVGEIGMNLALYGYGPPEHRQWIMVDCGVTFPGPDLPGVDLVLPDIRFLASERKNLKAIIITHAHEDHYGALADLWPGLNVPVYASGFTAGLLEAKRNFEKAKIGEVPVTPFKAGDTINVGPFSIEGVAVNHSIPEPMSLMIRTPVGNVIHTGDWKIDHEPSLGPLTDETRFRQLGDEGVLALMCDSTNALRDGVSPSEKDVSESLRKIIENAEGRVAITTFSSNVGRIRTVAEAAEAAGREVLLLGSSLKRVVDVAQDVGLMEGVKPFISEEEYGYIPRDKVVVILTGSQGEARAALAKLSRDEMRNVAFAAGDIVVFSSRAIPGNEKAIQDIKNGLVEQGVHIITDTEALVHVSGHPRRNELQRMYEWTRPKIVVPVHGEATHLTAHKELAEQSGIALVPRVRNGDILRLAPGEGHHHHHH | soluble
21 | NIENSSLERIANILNSKLKGLTIEQINLEVINNIKKDLREYGHIFDCIMPNLYDILREADSTEVYKEGTMNIFNYPEFKDIEKAKEFLSVIDDRRILDTLFNASGGVTVNIGNENSIKEARDFSVVSSVYKYNGRPLGTIGIIGPTRIPYSKVIKVIMEVVDQINNNLDKMNNS | not soluble
22 | MAQRNLDYRLLKDRRNEYGVSQNKLAIACGLSRTYLNLIENGGVTASTKTMRKIFDQLESFNPDLPLTLLFDYVRIRFSTTDVRKIIQELLHLKFEYMLHEDYAFYSYQEQYVMGDIVVMLSHEEDKGVLLELKGRGCRQFETFLLAQKRSWYDFFEDCLKTGGVMKRLDLAINDRVGLLDISDLTKKCQKEECISLFRTFKSYRSGELLKADEKDGMGNTLYIGSLKSEVYFCLYEKDYEQYIKLGIPLDQTETKNRFEIRLKNDRAYHAIQDLLKGRSIESTTFSIINRYLRFADKVEGKRRTNWPLNEQWGRFIGRNRKEIQLTSEPKPYTIERTLNWLGRQVAPTWKMAKELDRLNQTTYIQDMVRNARLSDQHKKILEQQSMAIENLIV | not soluble
23 | MDDYKRILITKILKNEVTEALGCTEVGLIGYAVSLCNISDPFSIEKIELTLNNGSFKNAYAVGVPNTKKYGILPAVVGGLLGDHKNKLLVFNGIKYSQKLEDFIKERLKIRVINSPLYCGVKIKDNSGNTFESLIKDNHLNVVIPKINNKLISEINGSEKEEYKNLELLDFLEYIDEIPEEIIQLVEKTIYTNNNLIKGDFLNFGNDCLSNMVNKTTSACNTRMIGENMPAMSVAKSGNMGIMATLPIIAYDYSNEQNQEKLIKSILLSVLVTIYATYKSSYLSSMCGCVSKGGMGAVIGLCYYKNGKNIKKLDSAARTFTANLPGIICDGGKVGCALKLASGCFAAYSSLFVDISYENGIVGKNFKECVENISEISKIMGDLDSDIVKIMSKKEI | not soluble
